Test results: patent publication US20140302021A1 (ONCLAVE THERAPEUTICS, published 2014)
No end group written: not given here.

Target: T1, CGGHEDT (SEQ ID NO: 17) conjugated to Ovalbumin (also: conjugated to ovalbumin)
T1 construct: Peptide-carrier conjugate used as the ELISA antigen
T1 peptide: CGGHEDT
Experiment: competitive binding ELISA
Text: A competitive binding ELISA has been established to measure binding of humanized 2A4 to its antigen (CGGHEDT (SEQ ID NO: 17) when conjugated to Ovalbumin) compared to the reference standard.

B1: humanized 2A4 antibody (IgG1, kappa isotype version of murine 2A4) (antibody, V domains shown)
VH: EVQLVESGGGLVQPGGSLRLSCAASGFTFNTYAMYWIRQAPGKGLEWVARIRSKSNNYAIYYADSVKDRFTISRDDSKNSLYLQMNSLKTEDTAVYYCARPYSDSFAYWGQGTLVTVSS
VL: DVVMTQSPLSLPVTPGEPASISCRSSQSLVHSTGNTYLHWYLQKPGQSPQLLIYKVSNRFSGVPDRFSGSGSGTDFTLKISRVEAEDVGVYYCSQSTHVPFTFGGGTKVEIKR
modifications: N-linked glycosylation at the consensus sequence, positions 299 to 301
notes: Human IgG1 of G1m(3) allotype, kappa; also called h2A4; humanized 2A4 drug substance
  binding result: binds
